We go through eight substances from PMC5109244.

In general, stoichiometry N refers to a count of units in the complex or per binding partner.

In assay [1] the target is long mouse DNGR-1 ECD (extracellular domain of the long isoform of mouse DNGR-1, wild type) (mouse). The experiment in a line: non-reducing SDS-PAGE and Western blot; purified long mouse ECD in PBS or 10 mM MES pH 6.1, Laemmli buffer or 8 M urea, no reducing agent.
For assay [2] the target is unchanged. The experiment in a line: non-reducing SDS-PAGE and Western blot; supernatants of 293F cells with FLAG-tagged ECD proteins, Laemmli buffer without reducing agent, HRP-conjugated anti-FLAG detection.
For assay [3] the target is unchanged. The experiment in a line: reducing SDS-PAGE and Western blot; purified ECD diluted into buffers of low pH and low ionic strength (10 mM MES pH 6.1; 10 mM Tris; 36 buffers of pH 6.5–8.05 and 15–250 mM ionic strength); 100 mM DTT in Laemmli buffer; reduction-resistant (type-2) dimers.
Assay [4] deals with full-length WT DNGR-1 (mouse, long isoform), transmembrane receptor (mouse). The assay is described as follows: reducing SDS-PAGE and Western blot; Phoenix cells expressing full-length DNGR-1 lysed in 1% SDS in 10 mM MES pH 6.1; reducing conditions; anti-DNGR-1 (clone 397) detection. Background: Immunoblotting shows a protein as a band on a membrane.
The target is the same in assay [5]. The experiment in a line: reducing SDS-PAGE and Western blot; Phoenix cells expressing full-length DNGR-1 lysed in 1% SDS in PBS; reducing conditions; anti-DNGR-1 (clone 397) detection; reduction-sensitive (type-1) dimers run as monomers.
For assay [6], the target named is Δ4A mutant long mouse DNGR-1 ECD (all residues of block 4, N81–T90, replaced by alanines) (mouse). The assay is described as follows: non-reducing SDS-PAGE and Western blot; supernatants of 293F cells with FLAG-tagged ECD proteins, Laemmli buffer without reducing agent, HRP-conjugated anti-FLAG detection.
Assay [7] has the same target. The assay is described as follows: reducing SDS-PAGE and Western blot; supernatants with FLAG-tagged ECD proteins, neat or diluted into PBS (neutral conditions); reduced with DTT (100 mM) or β-ME in Laemmli buffer; anti-FLAG detection.
Assay [8] has as its target chimeric DNGR-1:dectin-1 ECD (neck region of long mouse DNGR-1 fused to the CTLD of dectin-1) (mouse). The assay is described as follows: non-reducing SDS-PAGE and Western blot; supernatants of 293F cells with FLAG-tagged ECD proteins, Laemmli buffer without reducing agent, HRP-conjugated anti-FLAG detection.
The target of assay [9] is Δ3A mutant long mouse DNGR-1 ECD (all residues of block 3, L72–L82, replaced by alanines) (mouse). The description is as above.
For assay [10], the target named is full-length Δ4 DNGR-1 (mouse, long isoform; N81–T90 removed) (mouse). The experiment in a line: reducing SDS-PAGE and Western blot; Phoenix cells expressing full-length DNGR-1 lysed in 1% SDS in 10 mM MES pH 6.1; reducing conditions; anti-DNGR-1 (clone 397) detection.
The target is the same in assay [11]. The assay is described as follows: reducing SDS-PAGE and Western blot; Phoenix cells expressing full-length DNGR-1 lysed in 1% SDS in PBS; reducing conditions; anti-DNGR-1 (clone 397) detection; reduction-sensitive (type-1) dimers run as monomers.
Assay [12] has as its target Δ4 mutant long mouse DNGR-1 ECD (N81–T90 removed) (mouse). The experiment in a line: reducing SDS-PAGE and Western blot; supernatants with FLAG-tagged ECD proteins diluted into 10 mM MES pH 6.1; 100 mM DTT in Laemmli buffer; anti-FLAG detection; reduction-resistant (type-2) dimers.
Assay [13] shares this target. The assay is described as follows: reducing SDS-PAGE and Western blot; supernatants with FLAG-tagged ECD proteins, neat or diluted into PBS (neutral conditions); reduced with DTT (100 mM) or β-ME in Laemmli buffer; anti-FLAG detection.
Assay [14] addresses Δ6A mutant long mouse DNGR-1 ECD (all residues of block 6, Q95–S104, replaced by alanines) (mouse). The assay is described as follows: non-reducing SDS-PAGE and Western blot; supernatants of 293F cells with FLAG-tagged ECD proteins, Laemmli buffer without reducing agent, HRP-conjugated anti-FLAG detection.

Chain of long mouse DNGR-1 ECD (extracellular domain of the long isoform of mouse DNGR-1, wild type) (domain or fragment) (Q8BRU4 113-235): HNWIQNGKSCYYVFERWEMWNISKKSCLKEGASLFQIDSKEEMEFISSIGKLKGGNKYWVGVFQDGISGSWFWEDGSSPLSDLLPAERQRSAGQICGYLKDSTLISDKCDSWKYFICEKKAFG
Chain of full-length WT DNGR-1 (mouse, long isoform), transmembrane receptor (Q8BRU4 whole entry, canonical isoform): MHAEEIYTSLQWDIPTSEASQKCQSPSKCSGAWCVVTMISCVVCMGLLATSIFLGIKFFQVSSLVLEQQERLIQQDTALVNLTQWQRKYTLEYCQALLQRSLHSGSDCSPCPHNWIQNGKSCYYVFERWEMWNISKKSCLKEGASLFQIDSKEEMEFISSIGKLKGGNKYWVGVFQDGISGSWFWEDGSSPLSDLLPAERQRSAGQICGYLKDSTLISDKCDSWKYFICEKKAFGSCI

Consider “long mouse DNGR-1 ECD (extracellular domain of the long isoform of mouse DNGR-1, wild type) (domain or fragment)”, for which the stoichiometry N in assay [1], in assay [2] and in assay [3] was 2 each time. Turning to “full-length WT DNGR-1 (mouse, long isoform), transmembrane receptor”, the stoichiometry N in [4] and in [5] was 2 in each case.

On to “Δ4A mutant long mouse DNGR-1 ECD (all residues of block 4, N81–T90, replaced by alanines) (domain or fragment)”, for which the stoichiometry N in [6] and in [7] was 2 in each case. In the case of “chimeric DNGR-1:dectin-1 ECD (neck region of long mouse DNGR-1 fused to the CTLD of dectin-1)”, in assay [8], the stoichiometry N was determined as 2. For “Δ3A mutant long mouse DNGR-1 ECD (all residues of block 3, L72–L82, replaced by alanines) (domain or fragment)”, the stoichiometry N in assay [9] turned out to be 2. Regarding “full-length Δ4 DNGR-1 (mouse, long isoform; N81–T90 removed) (receptor)”, the stoichiometry N in [10] and in assay [11] was 2 throughout. Turning to “Δ4 mutant long mouse DNGR-1 ECD (N81–T90 removed) (domain or fragment)”, the stoichiometry N in assay [12] and in assay [13] was 2 throughout. “Δ6A mutant long mouse DNGR-1 ECD (all residues of block 6, Q95–S104, replaced by alanines) (domain or fragment)” registered a stoichiometry N in [14] of 2.
